# Measured values taken from patent US20240352438A1, “MEANS AND METHODS FOR DETOXIFYING OCHRATOXIN A” (DSM Austria GmbH, priority 2021, published 2024).
# Changes are numbered by the printed parent chain.
# B1: 166 (protein)
# chain: MTTRTRILTAFLSLLAANACAADAAPAAPHTVVLRAARMFDGASGKLVDHPQLTIVGNKIVRIAQGDKAEVPAGAEVVDLGDATLLPGFIDAHVHLSGQSSDNWYGDFFDNMMRFPAEQALYGAYYARITLEAGFTSVRDVGSTDWVALGLRNAIDAGKVPGPRMLVSNYPVGSTGGHADQDPVPPHKLPLAGPLQGVCNGPEECRAAVRYQIKYGANVIKFMPSGGVLSLSDPVDAPELSQDEMNAVIGESHAWGRKVAAHAHGDKAAKMAVAAGVDSIEHGSFIEDDTLRAMKAKNVYLVPTISAIAHVEEKIGTYPPVIAEKGRAAAAHLRQTFRHAVQIGVPIALGTDAGVGAHGSNAREFRYMVENGLTPAQALLAGTANAARLLGTFDRVGTLEAGKLADVVAVPGNPIADITVTERPLFVMKDGVVVRRDAVR
# modifications: exemplary polypeptide
# B2: 196 (protein)
# chain: B1 chain with P171A, V184I, Y318F, G356V
# modifications: exemplary polypeptide
# B3: 175 (protein)
# chain: B1 chain with P171A, I308A, Y318F, G354A
# modifications: exemplary polypeptide
# B4: 192 (protein)
# chain: B1 chain with P171A, V184I, Y318F, G354V
# modifications: exemplary polypeptide
# B5: 193 (protein)
# chain: B1 chain with P171A, V184I, Y318F, G356A
# modifications: exemplary polypeptide
# B6: 195 (protein)
# chain: B1 chain with P171A, V184I, Y318F, G356P
# modifications: exemplary polypeptide
# B7: 197 (protein)
# chain: B1 chain with P171A, V184I, Y318F, G356Y
# modifications: exemplary polypeptide
# B8: 169 (protein)
# chain: B1 chain with V184I, I308V
# modifications: exemplary polypeptide
# B9: 184 (protein)
# chain: B1 chain with P171A, V184I, Y318F, A330M
# modifications: exemplary polypeptide
# B10: 180 (protein)
# chain: B1 chain with Y170E, P171A, V184I, Y318F
# modifications: exemplary polypeptide
# B11: 188 (protein)
# chain: B1 chain with P171A, V184I, Y318F, L333V
# modifications: exemplary polypeptide
# B12: 186 (protein)
# chain: B1 chain with P171A, V184I, Y318F, L333I
# modifications: exemplary polypeptide
# B13: 190 (protein)
# chain: B1 chain with P171A, V184I, Y318F, G354S
# modifications: exemplary polypeptide
# B14: 168 (protein)
# chain: B1 chain with V184I, I308A
# modifications: exemplary polypeptide
# B15: 194 (protein)
# chain: B1 chain with P171A, V184I, Y318F, G356F
# modifications: exemplary polypeptide
# B16: 182 (protein)
# chain: B1 chain with Y170R, P171A, V184I, Y318F
# modifications: exemplary polypeptide
# B17: 181 (protein)
# chain: B1 chain with Y170F, P171A, V184I, Y318F
# modifications: exemplary polypeptide
# B18: 183 (protein)
# chain: B1 chain with P171A, V184I, Y318F, A330L
# modifications: exemplary polypeptide
# B19: 167 (protein)
# chain: B1 chain with Y318F, G354A
# modifications: exemplary polypeptide
# B20: 177 (protein)
# chain: B1 chain with P171A, G354A
# modifications: exemplary polypeptide
# B21: 174 (protein)
# chain: B1 chain with P171A, I308V
# modifications: exemplary polypeptide
# B22: 173 (protein)
# chain: B1 chain with P171A, I308A
# modifications: exemplary polypeptide
# B23: 187 (protein)
# chain: B1 chain with P171A, V184I, Y318F, L333M
# modifications: exemplary polypeptide
# B24: 189 (protein)
# chain: B1 chain with P171A, V184I, Y318F, G354L
# modifications: exemplary polypeptide
# B25: 179 (protein)
# chain: B1 chain with P171A, V184I, I308V, G354A
# modifications: exemplary polypeptide
# Assay: OTA detoxification activity assay (specific activity, fluorescence reduction ex/em 390/450 nm)
# Assay type: biochemical
# Conditions: pH 6.0; SEQ ID NO: 1 = 100%
# In short: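 Recombinant enzyme preparation with 200 ng/mL OTA in 100 mM sodium phosphate, at pH 6.0 and pH 7.5, 37° C. Degradation followed as the fall in fluorescence at ex/em 390/450 nm. Specific activity taken from the initial linear slope; one unit degrades 1 μmol OTA per min at a starting OTA of […].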
row,Molecule,"Specific OTA detoxification activities in % compared to the enzyme of SEQ ID NO: 1, pH 6.0 [%]"
1,B1,72
2,B2,48
3,B3,121
4,B4,69
5,B5,81
6,B6,148
7,B7,59
8,B8,50
9,B9,103
10,B10,91
11,B11,84
12,B12,142
13,B13,122
14,B14,41
15,B15,78
16,B16,98
17,B17,138
18,B18,58
19,B19,54
20,B20,94
21,B21,45
22,B22,27
23,B23,51
24,B24,82
25,B25,49

# Same assay, conditions: pH 7.5; SEQ ID NO: 1 = 100%
row,Molecule,"Specific OTA detoxification activities in % compared to the enzyme of SEQ ID NO: 1, pH 7.5 [%]"
1,B1,68
2,B2,58
3,B3,108
4,B4,30
5,B5,85
6,B6,100
7,B7,29
8,B8,45
9,B9,76
10,B10,83
11,B11,52
12,B12,115
13,B13,85
14,B14,62
15,B15,52
16,B16,91
17,B17,112
18,B18,55
19,B19,73
20,B20,90
21,B21,59
22,B22,53
23,B23,58
24,B24,22
25,B25,66

# Assay: Enzymatic activity comparison: activity remaining after 65° C. for 10 min at pH 6.0, relative to SEQ ID NO: 1
# Assay type: physicochemical
# Conditions: not given
# Experimental: To compare the temperature behavior and thermostability of selected enzymes to one another, enzyme was incubated at 65° C. for 10 min at pH 6.0. The enzymatic activity remaining after incubation was compared to the remaining activity of the enzyme of SEQ ID NO: 1 after incubation, the latter being set to 100%, see Table 16.
row,Molecule,"Enzymatic activity remaining after incubation, compared to SEQ ID NO: 1 (set to 100%) [%]"
1,B1,37
2,B2,57
3,B3,13
4,B4,41
5,B5,42
6,B6,38
7,B7,29
8,B8,30
9,B9,46
10,B10,28
11,B11,45
12,B12,42
13,B13,15
14,B14,48
15,B15,45
16,B16,38
17,B17,47
18,B18,75
19,B19,26
20,B20,20
21,B21,54
22,B22,53
23,B23,36
24,B24,19
25,B25,17
